T1: Myo5 SH3 (MYO5_YEAST), Q04439
T1 chain: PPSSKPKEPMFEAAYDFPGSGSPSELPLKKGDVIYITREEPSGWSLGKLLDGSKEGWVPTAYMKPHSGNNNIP

T2: Boi2 SH3 (BOI2_YEAST), P39969
T2 chain: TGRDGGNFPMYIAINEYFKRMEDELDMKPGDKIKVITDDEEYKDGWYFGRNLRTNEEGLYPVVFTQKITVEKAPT

T3: Rvs167 SH3 (RV167_YEAST), P39743
T3 chain: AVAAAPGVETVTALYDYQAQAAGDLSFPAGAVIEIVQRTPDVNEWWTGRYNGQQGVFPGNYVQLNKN

T4: Yhr016c SH3 (YSC84_YEAST), P32793
T4 chain: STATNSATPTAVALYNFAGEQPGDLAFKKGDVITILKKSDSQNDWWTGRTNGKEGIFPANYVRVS

T5: Yfr024 SH3 (LSB3_YEAST), P43603
T5 chain: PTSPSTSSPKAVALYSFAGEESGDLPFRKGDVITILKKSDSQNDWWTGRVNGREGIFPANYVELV

T6: Boi1 SH3 (BOI1_YEAST), P38041
T6 chain: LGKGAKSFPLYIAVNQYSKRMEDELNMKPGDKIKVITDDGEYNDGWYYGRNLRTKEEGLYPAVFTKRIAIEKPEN

Sequence of Sho1 SH3 (SHO1_YEAST), P40073 (P40073 295-366): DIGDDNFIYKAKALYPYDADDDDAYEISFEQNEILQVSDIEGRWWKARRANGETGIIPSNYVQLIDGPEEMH

The target of the first test is T1, Myo5 SH3 (MYO5_YEAST), Q04439. Nature of the test: SPOT array.
For YVNPRNLPSVPNGL [YLR418C 264-277], the normalised SPOT signal, Boehringer light units (BLU); mean over the file's lines of this peptide was 180.
YPNGRTLPPVPTQV [YER064C 178-191] showed a normalised SPOT signal, Boehringer light units (BLU); mean over the file's lines of this peptide of 172.
As for YVKERRPPPPPPLL [YLR425W 99-112], the normalised SPOT signal, Boehringer light units (BLU); mean over the file's lines of this peptide was 15900.
Same read-out and setting: then YGDNKKNPESPESV [YDL133W 210-223], with 147; and YSTNRGIPARPSKD [YPL073C 79-92], with 271; and YVYGRQDPKKPFFT [YNL137C 410-423], with 345.
Same read-out and setting: to YWGKKFEPERPFEF [YJR137C 1187-1200] belongs 385.

For the next test, the target named is T2, Boi2 SH3 (BOI2_YEAST), P39969. Nature of the test: SPOT array.
As to YVNPRNLPSVPNGL [YLR418C 264-277], the normalised SPOT signal, Boehringer light units (BLU); mean over the file's lines of this peptide amounted to 59.5.
Take YPNGRTLPPVPTQV [YER064C 178-191]: the normalised SPOT signal, Boehringer light units (BLU); mean over the file's lines of this peptide stood at 18.3.
In turn, YVKERRPPPPPPLL [YLR425W 99-112] showed a normalised SPOT signal, Boehringer light units (BLU); mean over the file's lines of this peptide of 17.8.
Regarding YGDNKKNPESPESV [YDL133W 210-223], the normalised SPOT signal, Boehringer light units (BLU); mean over the file's lines of this peptide worked out at 8.4.
On the same count and under the same terms, then YSTNRGIPARPSKD [YPL073C 79-92], with 107.
Molecule YVYGRQDPKKPFFT [YNL137C 410-423] displayed a normalised SPOT signal, Boehringer light units (BLU); mean over the file's lines of this peptide of 23.2.
Same read-out and setting: to YWGKKFEPERPFEF [YJR137C 1187-1200] belongs 266.

The next test deals with T3, Rvs167 SH3 (RV167_YEAST), P39743. Nature of the test: SPOT array.
For YVNPRNLPSVPNGL [YLR418C 264-277], the normalised SPOT signal, Boehringer light units (BLU); mean over the file's lines of this peptide was 490.
YPNGRTLPPVPTQV [YER064C 178-191] registered a normalised SPOT signal, Boehringer light units (BLU); mean over the file's lines of this peptide of 922.
YVKERRPPPPPPLL [YLR425W 99-112] registered a normalised SPOT signal, Boehringer light units (BLU); mean over the file's lines of this peptide of 163.
The same measure, in the same setting: then YGDNKKNPESPESV [YDL133W 210-223], with 3.3.
In turn, YSTNRGIPARPSKD [YPL073C 79-92] returned a normalised SPOT signal, Boehringer light units (BLU); mean over the file's lines of this peptide of 8430.
YVYGRQDPKKPFFT [YNL137C 410-423] displayed a normalised SPOT signal, Boehringer light units (BLU); mean over the file's lines of this peptide of 201.
Still for that read-out and setting: to YWGKKFEPERPFEF [YJR137C 1187-1200] belongs 350.

For another test, the target named is T4, Yhr016c SH3 (YSC84_YEAST), P32793. Nature of the test: SPOT array.
YVNPRNLPSVPNGL [YLR418C 264-277] yielded a normalised SPOT signal, Boehringer light units (BLU); mean over the file's lines of this peptide of 765.
Still for that read-out and setting: then YPNGRTLPPVPTQV [YER064C 178-191], with 505; and YVKERRPPPPPPLL [YLR425W 99-112], with 32.3; and YGDNKKNPESPESV [YDL133W 210-223], with 19.5.
YSTNRGIPARPSKD [YPL073C 79-92] had a normalised SPOT signal, Boehringer light units (BLU); mean over the file's lines of this peptide of 5100.
On the same count and under the same terms, to YVYGRQDPKKPFFT [YNL137C 410-423] belongs 32.8; to YWGKKFEPERPFEF [YJR137C 1187-1200], 324.

A further test deals with T5, Yfr024 SH3 (LSB3_YEAST), P43603. In words: SPOT array.
Regarding YVNPRNLPSVPNGL [YLR418C 264-277], the normalised SPOT signal, Boehringer light units (BLU); mean over the file's lines of this peptide stood at 952.
The same measure, in the same setting: to YPNGRTLPPVPTQV [YER064C 178-191] belongs 1460; to YVKERRPPPPPPLL [YLR425W 99-112], 330; to YGDNKKNPESPESV [YDL133W 210-223], 13.3.
Turning to YSTNRGIPARPSKD [YPL073C 79-92], the normalised SPOT signal, Boehringer light units (BLU); mean over the file's lines of this peptide turned out to be 17300.
YVYGRQDPKKPFFT [YNL137C 410-423] yielded a normalised SPOT signal, Boehringer light units (BLU); mean over the file's lines of this peptide of 159.
The molecule YWGKKFEPERPFEF [YJR137C 1187-1200] gave a normalised SPOT signal, Boehringer light units (BLU); mean over the file's lines of this peptide of 1160.

The next test addresses Sho1 SH3 (SHO1_YEAST), P40073. In words: SPOT array.
As to YVNPRNLPSVPNGL [YLR418C 264-277], the normalised SPOT signal, Boehringer light units (BLU); mean over the file's lines of this peptide stood at 2350.
Still for that read-out and setting: then YPNGRTLPPVPTQV [YER064C 178-191], with 17400; and YVKERRPPPPPPLL [YLR425W 99-112], with 63.5; and YGDNKKNPESPESV [YDL133W 210-223], with 25.3.
On the same count and under the same terms, then YSTNRGIPARPSKD [YPL073C 79-92], with 179; and YVYGRQDPKKPFFT [YNL137C 410-423], with 118; and YWGKKFEPERPFEF [YJR137C 1187-1200], with 460.

Another test has as its target T6, Boi1 SH3 (BOI1_YEAST), P38041. In words: SPOT array.
On to YVNPRNLPSVPNGL [YLR418C 264-277], for which the normalised SPOT signal, Boehringer light units (BLU); mean over the file's lines of this peptide turned out to be 174.
The molecule YPNGRTLPPVPTQV [YER064C 178-191] yielded a normalised SPOT signal, Boehringer light units (BLU); mean over the file's lines of this peptide of -0.
In turn, YVKERRPPPPPPLL [YLR425W 99-112] registered a normalised SPOT signal, Boehringer light units (BLU); mean over the file's lines of this peptide of 17.5.
Same read-out and setting: to YGDNKKNPESPESV [YDL133W 210-223] belongs 79.4; to YSTNRGIPARPSKD [YPL073C 79-92], 534.
Regarding YVYGRQDPKKPFFT [YNL137C 410-423], the normalised SPOT signal, Boehringer light units (BLU); mean over the file's lines of this peptide is 1330.
On the same count and under the same terms, then YWGKKFEPERPFEF [YJR137C 1187-1200], with 678.

The values are drawn from publication PMC314469, “Protein Interaction Networks by Proteome Peptide Scanning” (PLoS Biology, 2004).
